Experimental data from US20220340642A1 (Kyowa Kirin, published 2022).

B1: chimera A-E57K_R58D-Fc (Eg1S LALAGANA) (Fc fusion)
chain: ETFPPKYLHYDEETSHQLLCDKCPPGTYLKQHCTAKWKTVCAPCPPRHYTQFWNYLKDCRYCNVLCGEREEEARACHATHNRACRCRTGFFAHAGFCLEHASCPPGAGVIAPGTPSQNTQCQPCPDGFFSNETSSKAPCRKHTNCSVFGLLLTQKGNATHDNICSGNSESTQKEPKSSDKTHTCPPCPAPEAAGAPSVFLFPPKPKDTLMISRTPEVTCVVVDVSHEDPEVKFNWYVDGVEVHNAKTKPREEQYNSTYRVVSVLTVLHQDWLNGKEYKCKVSNKALPAPIEKTISKAKGQPREPQVYTLPPSRDELTKNQVSLTCLVKGFYPSDIAVEWESNGQPENNYKTTPPVLDSDGSFFLYSKLTVDKSRWQQGNVFSCSVMHEALHAHYTQKSLSLSPGK
B2: chimera A-Fc (Eg1S YTE) (Fc fusion)
chain: ETFPPKYLHYDEETSHQLLCDKCPPGTYLKQHCTAKWKTVCAPCPPRHYTQFWNYLERCRYCNVLCGEREEEARACHATHNRACRCRTGFFAHAGFCLEHASCPPGAGVIAPGTPSQNTQCQPCPDGFFSNETSSKAPCRKHTNCSVFGLLLTQKGNATHDNICSGNSESTQKEPKSSDKTHTCPPCPAPELLGGPSVFLFPPKPKDTLYITREPEVTCVVVDVSHEDPEVKFNWYVDGVEVHNAKTKPREEQYNSTYRVVSVLTVLHQDWLNGKEYKCKVSNKALPAPIEKTISKAKGQPREPQVYTLPPSRDELTKNQVSLTCLVKGFYPSDIAVEWESNGQPENNYKTTPPVLDSDGSFFLYSKLTVDKSRWQQGNVFSCSVMHEALHNHYTQKSLSLSPGK
B3: chimera A-Fc (Eg1S LALAGANA) (Fc fusion)
chain: ETFPPKYLHYDEETSHQLLCDKCPPGTYLKQHCTAKWKTVCAPCPPRHYTQFWNYLERCRYCNVLCGEREEEARACHATHNRACRCRTGFFAHAGFCLEHASCPPGAGVIAPGTPSQNTQCQPCPDGFFSNETSSKAPCRKHTNCSVFGLLLTQKGNATHDNICSGNSESTQKEPKSSDKTHTCPPCPAPEAAGAPSVFLFPPKPKDTLMISRTPEVTCVVVDVSHEDPEVKFNWYVDGVEVHNAKTKPREEQYNSTYRVVSVLTVLHQDWLNGKEYKCKVSNKALPAPIEKTISKAKGQPREPQVYTLPPSRDELTKNQVSLTCLVKGFYPSDIAVEWESNGQPENNYKTTPPVLDSDGSFFLYSKLTVDKSRWQQGNVFSCSVMHEALHAHYTQKSLSLSPGK
B4: chimera A-E57K_R58E-Fc (Eg1S YTE) (Fc fusion)
chain: ETFPPKYLHYDEETSHQLLCDKCPPGTYLKQHCTAKWKTVCAPCPPRHYTQFWNYLKECRYCNVLCGEREEEARACHATHNRACRCRTGFFAHAGFCLEHASCPPGAGVIAPGTPSQNTQCQPCPDGFFSNETSSKAPCRKHTNCSVFGLLLTQKGNATHDNICSGNSESTQKEPKSSDKTHTCPPCPAPELLGGPSVFLFPPKPKDTLYITREPEVTCVVVDVSHEDPEVKFNWYVDGVEVHNAKTKPREEQYNSTYRVVSVLTVLHQDWLNGKEYKCKVSNKALPAPIEKTISKAKGQPREPQVYTLPPSRDELTKNQVSLTCLVKGFYPSDIAVEWESNGQPENNYKTTPPVLDSDGSFFLYSKLTVDKSRWQQGNVFSCSVMHEALHNHYTQKSLSLSPGK
notes: also called 45-18-Fc (Eg1S YTE)
B5: chimera A-E57K_R58D-Fc (Eg1S YTE) (Fc fusion)
chain: ETFPPKYLHYDEETSHQLLCDKCPPGTYLKQHCTAKWKTVCAPCPPRHYTQFWNYLKDCRYCNVLCGEREEEARACHATHNRACRCRTGFFAHAGFCLEHASCPPGAGVIAPGTPSQNTQCQPCPDGFFSNETSSKAPCRKHTNCSVFGLLLTQKGNATHDNICSGNSESTQKEPKSSDKTHTCPPCPAPELLGGPSVFLFPPKPKDTLYITREPEVTCVVVDVSHEDPEVKFNWYVDGVEVHNAKTKPREEQYNSTYRVVSVLTVLHQDWLNGKEYKCKVSNKALPAPIEKTISKAKGQPREPQVYTLPPSRDELTKNQVSLTCLVKGFYPSDIAVEWESNGQPENNYKTTPPVLDSDGSFFLYSKLTVDKSRWQQGNVFSCSVMHEALHNHYTQKSLSLSPGK
notes: also called 45-10-Fc (Eg1S YTE)

Tests used:
[1] = molecular target: T1, soluble recombinant of cynomolgus monkey LIGHT (His10, GS linker, Asp74-Val240); experiment: BIAcore SPR
T1 chain: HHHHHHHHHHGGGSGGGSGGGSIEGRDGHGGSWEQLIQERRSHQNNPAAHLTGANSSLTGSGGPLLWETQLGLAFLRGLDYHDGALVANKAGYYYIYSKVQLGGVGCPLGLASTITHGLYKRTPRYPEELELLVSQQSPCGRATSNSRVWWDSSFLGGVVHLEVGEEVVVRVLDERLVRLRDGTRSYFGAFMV
Summary of the method: (§1)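 The dissociation constant (Kd, nM) reflects binding of each test molecule to soluble recombinant His-tagged human or cynomolgus monkey LIGHT, TL1A or FasL. It was derived from surface plasmon resonance measurements in HBS-EP+ Buffer using a BIAcore T-100 or T-200 instrument (GE Healthcare).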

[2] = molecular target: T2, soluble recombinant of cynomolgus monkey TL1A (His6, GS linker, Leu72-Leu251); experiment: BIAcore SPR
T2 chain: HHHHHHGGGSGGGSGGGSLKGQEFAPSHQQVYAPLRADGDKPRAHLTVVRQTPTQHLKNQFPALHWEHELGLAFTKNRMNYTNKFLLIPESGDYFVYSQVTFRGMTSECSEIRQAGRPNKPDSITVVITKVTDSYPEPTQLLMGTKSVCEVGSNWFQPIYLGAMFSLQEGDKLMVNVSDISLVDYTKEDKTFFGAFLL
Summary of the method: as §1

[3] = molecular target: T3, soluble recombinant of cynomolgus monkey FasL (His6, Pro133-Leu280) (UniProt P63308 133-280); experiment: BIAcore SPR
T3 chain: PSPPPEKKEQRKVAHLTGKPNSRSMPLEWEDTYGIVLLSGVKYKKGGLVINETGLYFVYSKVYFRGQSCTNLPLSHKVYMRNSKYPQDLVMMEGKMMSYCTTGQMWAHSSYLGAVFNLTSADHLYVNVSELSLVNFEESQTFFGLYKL
Summary of the method: as §1

[4] = molecular target: T4, soluble recombinant of human TL1A (His6, GS linker, Leu72-Leu251) (UniProt O95150 72-251); experiment: BIAcore SPR
T4 chain: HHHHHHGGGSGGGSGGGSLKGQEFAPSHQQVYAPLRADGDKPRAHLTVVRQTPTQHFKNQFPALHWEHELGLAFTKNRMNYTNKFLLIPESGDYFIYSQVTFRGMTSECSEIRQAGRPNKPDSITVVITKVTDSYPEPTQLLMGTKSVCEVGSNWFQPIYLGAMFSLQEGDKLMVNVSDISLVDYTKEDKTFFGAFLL
Summary of the method: as §1

[5] = molecular target: T5, soluble recombinant of human FasL (His6, Pro134-Leu281) (UniProt P48023 134-281); experiment: BIAcore SPR
T5 chain: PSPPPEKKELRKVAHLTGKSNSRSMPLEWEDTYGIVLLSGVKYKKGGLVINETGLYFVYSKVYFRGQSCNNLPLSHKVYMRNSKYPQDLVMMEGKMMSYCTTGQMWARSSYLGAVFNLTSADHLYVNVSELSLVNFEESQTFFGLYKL
Summary of the method: as §1

[6] = molecular target: T6, soluble recombinant of human LIGHT (His10, GS linker, Asp74-Val240); experiment: BIAcore SPR
T6 chain: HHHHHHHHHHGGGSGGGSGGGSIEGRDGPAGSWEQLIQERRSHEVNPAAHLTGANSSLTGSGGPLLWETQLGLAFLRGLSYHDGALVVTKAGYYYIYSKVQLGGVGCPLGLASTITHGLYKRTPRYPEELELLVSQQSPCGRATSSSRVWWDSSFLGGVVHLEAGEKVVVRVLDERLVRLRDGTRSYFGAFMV
Summary of the method: as §1

[7] = molecular target: T7, FLAG-cynoLIGHT (FLAG tag, cynomolgus monkey LIGHT Asp74-Val240) (cynomolgus monkey); experiment: SPR, binder captured on Protein A chip
T7 construct: SEC trimer fraction; also called soluble cynomolgus monkey LIGHT trimer
T7 chain: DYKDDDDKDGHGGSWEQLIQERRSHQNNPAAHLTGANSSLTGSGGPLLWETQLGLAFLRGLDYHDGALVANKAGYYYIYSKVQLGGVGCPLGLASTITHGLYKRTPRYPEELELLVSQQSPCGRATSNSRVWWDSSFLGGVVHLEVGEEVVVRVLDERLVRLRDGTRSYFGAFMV
Method: (§2) The binding activity to human and cynomolgus monkey DcR3 ligand trimers were analyzed by the SPR method. BIAcore T-100 (GE Healthcare) was used for measurement of the binding activities to human LIGHT, cynomolgus monkey LIGHT, human TL1A and cynomolgus monkey TL1A, and BIAcore T-200 (GE Healthcare) was used for measurement of the binding activities to human FasL and cynomolgus monkey FasL. As the buffer, HBS-EP+Buffer was used.
(§3) Various DcR3 variants were injected into Series S Sensor Chip Protein A (GE Healthcare) at 10 μL/min for 30 seconds and captured. Meanwhile, the buffer containing no protein was injected into a reference flow cell. Thereafter, as an analyte, each human DcR3 ligand trimer or each cynomolgus monkey DcR3 ligand trimer diluted to 0.08 to 20 nmol/L was injected. A human LIGHT trimer, a human TL1A trimer or each cynomolgus monkey DcR3 ligand trimer was injected at the flow rate of 30 μL/min for 2 minutes to monitor the binding, and subsequently the buffer was injected for 5 minutes to monitor dissociation. A human FasL trimer was injected at 30 μL/min for 1 minute to monitor the binding, and subsequently the buffer was injected for 3 minutes to monitor dissociation. Then, 3 mol/L magnesium chloride was injected at 30 μL/min for 1 minute to perform a regeneration reaction.

[8] = molecular target: T8, soluble recombinant of human TL1A (His6, GS linker, Leu72-Leu251) (human, UniProt O95150 72-251); experiment: SPR, binder captured on Protein A chip
T8 construct: also called His6-TL1A; hTL1A
T8 sequence: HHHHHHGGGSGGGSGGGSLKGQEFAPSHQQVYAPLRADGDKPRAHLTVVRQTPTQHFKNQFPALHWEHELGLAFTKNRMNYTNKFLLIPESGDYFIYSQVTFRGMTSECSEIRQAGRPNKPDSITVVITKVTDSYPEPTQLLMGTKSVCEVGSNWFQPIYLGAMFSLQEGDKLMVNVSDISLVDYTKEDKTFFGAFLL
Method: as §2, §3

[9] = molecular target: T9, FLAG-LIGHT (FLAG tag, human LIGHT Asp74-Val240) (human, UniProt O43557 74-240); experiment: SPR, binder captured on Protein A chip
T9 construct: SEC trimer fraction; also called soluble recombinant FLAG-LIGHT trimer; soluble human LIGHT trimer
Method: as §2, §3

[10] = molecular target: T10, soluble recombinant of cynomolgus monkey TL1A (His6, GS linker, Leu72-Leu251) (cynomolgus monkey); experiment: SPR, binder captured on Protein A chip
T10 construct: also called His6-cynoTL1A
T10 chain: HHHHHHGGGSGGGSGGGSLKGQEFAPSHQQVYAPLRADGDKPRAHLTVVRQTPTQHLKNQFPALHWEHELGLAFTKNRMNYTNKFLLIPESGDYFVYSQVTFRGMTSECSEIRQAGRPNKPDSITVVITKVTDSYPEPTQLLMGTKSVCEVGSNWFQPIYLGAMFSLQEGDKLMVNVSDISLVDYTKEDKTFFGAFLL
Method: as §2, §3

[11] = molecular target: T11, soluble recombinant of cynomolgus monkey FasL (His6, Pro133-Leu280) (cynomolgus monkey, UniProt P63308 133-280); experiment: SPR, binder captured on Protein A chip
T11 construct: also called His6-cynoFasL
T11 sequence: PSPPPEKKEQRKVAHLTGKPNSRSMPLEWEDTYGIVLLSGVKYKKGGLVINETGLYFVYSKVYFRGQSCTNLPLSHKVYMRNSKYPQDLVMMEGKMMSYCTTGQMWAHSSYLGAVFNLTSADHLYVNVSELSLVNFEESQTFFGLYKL
Method: as §2, §3

| Kd [1] [nM] | Kd [2] [nM] | Kd [3] [nM] | Kd [4] [nM] | Kd [5] [nM] | Kd [6] [nM] | binding result [7] | binding result [8] | binding result [9] | binding result [10] | binding result [11] | Binder |
| --- | --- | --- | --- | --- | --- | --- | --- | --- | --- | --- | --- |
| 0.3 | 0.19 | 0.96 | 0.2 | 4.6 | 0.3 | binds | binds | binds | binds | binds | B1 |
| 0.28 | 0.17 | 0.27 | 0.16 | 1.2 | 0.27 | binds | binds | binds | binds | binds | B2 |
| 0.21 | 0.11 | 0.22 | 0.12 | 0.75 | 0.2 | binds | binds | binds | binds | binds | B3 |
| 0.35 | 0.21 | 1.2 | 0.2 | 5.6 | 0.33 | binds | binds | binds | binds | binds | B4 |
| 0.31 | 0.25 | 1.2 | 0.25 | 5.7 | 0.4 | binds | binds | binds | binds | binds | B5 |
